Measurements taken from patent US20240200091A1, “USE OF PROTOPORPHYRINOGEN OXIDASE” (BEIJING DABEINONG BIOTECHNOLOGY CO., LTD., priority 2021, published 2024).

B1: PPO6B: nucleotide sequence encoding protoporphyrinogen oxidase PPO6, maize common codon usage bias (nucleic acid)
DNA: ATGTCAAGTCCCAACGGGAAGTACCTTATGCTGTATAGCACGACTGATGGACACACCAAGACAATAATGGACACCATGGCGAAGCACATTATGGAAGAGGCCAAAGTTCAGTGCGACGTCGTAGACATGAGGGACGGGGACAAGTATGAACTTGCGGCTTACGAGAAGGTCATGCTCGGCGCCTCCATAAGGTACGGCTTCTTCAGCCGCACCTTGCATACATATACTACCCATCATGTTGATGAGCTTAACTCCATGCCATCGGCATTCTTTGGTGTTAATTTAACGGCGCGGAAAACTAGCAAGAACACAGCCATGACCAATGCTTATACACGGAAATTCCTGGATCAATCTATGTGGGTGCCACAGCTGAGTGGGGTCTTCGCCGGTGCACTCTGGTACCCCCGCTACAACTTTTTTGATCGAGTGATGATCCAGTTCATCATGAAGGTGACGGGCGGCGAAACAAATACTACAAAAGAGATCGTCTACACGGACTGGGATGCAGTGCACAAGTTTGCTACTGACTTCGTCCAACTCCCTGCCACCGCCATTCCAAGATCTAAACCTGCTACGTCGGTGCCGCCGGCGTCAGTAGCAAACTATGATAATGGTGCTCGTGTTGCGCTGGTGGTGGTTGGAATTTCTGCAGCCATCATCTTCGGCCGCAGGCTAATTTTGGCCAAGAGATTTTGA
modifications: The nucleotide sequence of PPO6B
B2: PPO1B: nucleotide sequence encoding protoporphyrinogen oxidase PPO1, maize common codon usage bias (nucleic acid)
DNA: ATGAAAGCGTTGGTTCTTTACAGTACAAGAGATGGTCAGACCCACGCCATTGCGAGCTATATCGCAAACTGCATGAAGGAGAAGTATGAATGTGACGTCATTGATCTCTTGCACGCGCAGCATGTCACCCTTAGCCGCTACGACAAGGTCCTTGTTGGGGCATCGATACGCTATGGCCATTTCAACGCCGTGCTGGACAAATTTGTTAAGCAGAATATACAACAGCTGAACTCCATGCCTTCTGCATTCTTCGCGGTAAATCTGACCGCTCGTAAGCCAGAAAAAAGGACACCACAAACAAATTCATACGTCAGAAAGTTCCTCCTAGGAACGCCGTGGAAGCCCGCCATGTGCGGTGTTTTTGCTGGCGCCTTGCGATACCCTCGGTATCGGTGGGTGGACAAGGTGATGATCCAATTAATCATGAGGATGACGGGGGGCGAGACTGATACTTCTAAAGAAGTGGAGTACACTGATTGGGAGCAGGTGAAAAAATTTGCTGAGGACTTCGGAAAGCTCTCCTACAAGAAGACGCTGTGA
modifications: The nucleotide sequence of PPO1B
B3: PPO12B: nucleotide sequence encoding protoporphyrinogen oxidase PPO12, maize common codon usage bias (nucleic acid)
DNA: ATGAAGAAGGCGCTGTTTTTATATTCAAGTCGTGAGGGCCAAACAAAAAAAATATTGAACTACATTGAAGGTGAATTGTCCAATTTTGAGTGCGAGCTCGTCGACCTCCACACGCTGGACGCCATTGATTTCTCGGTCTATGACAGGGTTTTGATTGGAGCAAGCATACGGTACGGCCACCTAAACAAGAAACTTTATCAATTCATTGAGAATAACCGCCAGCAGCTGGAAAATCATACCAAGGTGGCCTTCTTCTGTGTAAATCTTACTGCAAGGAAGGAAGATCAAGGCAAGGACACCCCTGAAGGGAGCGTCTACATCCAGAAGTTCCTGAAAAAATCTCCCTGGCAGCCAAAACTTATCGGGGTGTTCGCTGGCGCGCTCTACTACCCGAGATATGGTTTTTTTGACAAGATGATGATCAAGCTCATCATGACGCTGACAGATGGAGAGACTGATACTACAAAGGAGGTGGAGTACACCAACTGGAAGAAAGTTTCCCTCTTCGCCAAGAAGTTTGCTGAGCTTTGA
modifications: The nucleotide sequence of PPO12B

test system: transgenic maize plants; assay: oxyfluorfen tolerance of transgenic maize plants (spray, grade of pesticide damage); format: in vivo; conditions: maize, oxyfluorfen at four-fold field concentration (720 g ai/ha)

Molecule | tolerance to oxyfluorfen
B1 | high-resistant tolerance
B2 | high-resistant tolerance
B3 | high-resistant tolerance

same assay, conditions: maize, oxyfluorfen at two-fold field concentration (360 g ai/ha)

Molecule | tolerance to oxyfluorfen
B1 | high-resistant tolerance
B2 | high-resistant tolerance
B3 | high-resistant tolerance

same assay, conditions: oxyfluorfen 360 g ai/ha (2x field concentration), 7 DAT, 16 maize plants per genotype

Molecule | The grade of pesticide damage/plant: number of plants of grade 0 | The grade of pesticide damage/plant: number of plants of grade 1 | The grade of pesticide damage/plant: number of plants of grade 2 | The grade of pesticide damage/plant: number of plants of grade 3
B1 | 16 | 0 | 0 | 0
B2 | 16 | 0 | 0 | 0
B3 | 16 | 0 | 0 | 0

same assay, conditions: oxyfluorfen 720 g ai/ha (4x field concentration), 7 DAT, 16 maize plants per genotype

Molecule | The grade of pesticide damage/plant: number of plants of grade 0 | The grade of pesticide damage/plant: number of plants of grade 1 | The grade of pesticide damage/plant: number of plants of grade 2 | The grade of pesticide damage/plant: number of plants of grade 3
B1 | 16 | 0 | 0 | 0
B2 | 16 | 0 | 0 | 0
B3 | 16 | 0 | 0 | 0

test system: transgenic maize plants; assay: saflufenacil tolerance of transgenic maize plants (spray, grade of pesticide damage); format: in vivo; conditions: maize, saflufenacil at four-fold field concentration (100 g ai/ha)

Molecule | tolerance to saflufenacil
B1 | high-resistant tolerance
B2 | high-resistant tolerance
B3 | high-resistant tolerance

same assay, conditions: maize, saflufenacil at two-fold field concentration (50 g ai/ha)

Molecule | tolerance to saflufenacil
B1 | high-resistant tolerance
B2 | high-resistant tolerance
B3 | high-resistant tolerance

same assay, conditions: saflufenacil 50 g ai/ha (2x field concentration), 7 DAT, 16 maize plants per genotype

Molecule | The grade of pesticide damage/plant: number of plants of grade 0 | The grade of pesticide damage/plant: number of plants of grade 1 | The grade of pesticide damage/plant: number of plants of grade 2 | The grade of pesticide damage/plant: number of plants of grade 3
B1 | 16 | 0 | 0 | 0
B2 | 16 | 0 | 0 | 0
B3 | 16 | 0 | 0 | 0

same assay, conditions: saflufenacil 100 g ai/ha (4x field concentration), 7 DAT, 16 maize plants per genotype

Molecule | The grade of pesticide damage/plant: number of plants of grade 0 | The grade of pesticide damage/plant: number of plants of grade 1 | The grade of pesticide damage/plant: number of plants of grade 2 | The grade of pesticide damage/plant: number of plants of grade 3
B1 | 16 | 0 | 0 | 0
B2 | 16 | 0 | 0 | 0
B3 | 16 | 0 | 0 | 0

test system: transgenic maize plants; assay: flumioxazin tolerance of transgenic maize plants (spray, grade of pesticide damage); format: in vivo; conditions: flumioxazin 120 g ai/ha (2x field concentration), 7 DAT, 16 maize plants per genotype

Molecule | The grade of pesticide damage/plant: number of plants of grade 0 | The grade of pesticide damage/plant: number of plants of grade 1 | The grade of pesticide damage/plant: number of plants of grade 2 | The grade of pesticide damage/plant: number of plants of grade 3
B1 | 16 | 0 | 0 | 0
B2 | 16 | 0 | 0 | 0
B3 | 16 | 0 | 0 | 0

same assay, conditions: flumioxazin 240 g ai/ha (4x field concentration), 7 DAT, 16 maize plants per genotype

Molecule | The grade of pesticide damage/plant: number of plants of grade 0 | The grade of pesticide damage/plant: number of plants of grade 1 | The grade of pesticide damage/plant: number of plants of grade 2 | The grade of pesticide damage/plant: number of plants of grade 3
B1 | 16 | 0 | 0 | 0
B2 | 16 | 0 | 0 | 0
B3 | 16 | 0 | 0 | 0

same assay, conditions: maize, flumioxazin at different concentrations (120 and 240 g ai/ha)

Molecule | tolerance to flumioxazin
B1 | high-resistant tolerance
B2 | high-resistant tolerance
B3 | high-resistant tolerance
